{"source": "patent US20210386836", "target": "ENA-78", "data": [{"protein": "PrtV(Pro-B) (protein) DTVNGSESVKTEATQASGSSVQDNATAKTTVTTNSNSSNNVSNVQTDTVKEAATSNVDSVASQNQATTAQQAKTTADTADQTVPPTTYKDHVKGNVQTAWDNGYKGQGMVVAVIDSGADTNHKDFSKAPESPAISKEDADKKISELGYGKYASEKFPFVYNYASRDNNWVKDDGPDASEHGQHVAGIIGADGQPNGNERYAVGVAPETQLMMMRVFNDQFADENTDDIAQAIYDAVKLGANVIQMSLGQGVAAANLNDVEQKAVEYATQHGVFVSISASNNGNSASVTGEEVPYKPGGADGNFEPFSSSTVANPGASRNAMTVAAENSVVGAGDDMADFSSWGPLQDFTLKPDVSAPGVSVTSTGNDNRYNTMSGTSMAGPFNAGVAALVMQRLKATTNLNGADLVQATKALIMNTAKPMTQQGYDTPVSPRRQGAGEIDAGAATESPVYVVAADGTSSVSLRKVGDSTQFALTFKNLSDKDQTYTFDDFGGGLTEVRDADTGTFHDVYLAGAHVYGNKTVTVKAGQSATYNFTLSLTGLKENQLVEGWLRFVGNDGQNQLVVPYLAYYGDMTSEDVFDKAANQEGTVYGGNYFVNEDNYPRGVADEDSLKALVNLEGNYNWQQVAKLYQDGKVAFSPNADGKSDLLKPYAFVKQNLKDLKVEVLDKSGKVVRVVADEQGLDKSYYESGVNKDVTLSVSMRNNPNTLAWDGKVYDDKAGEMVNAADGEYTYRYVATLYNDGVNKVQTADYPVVIDTTAPVLSNVKYDAATHTLSFDYKDTGSGFTDYSYAVVKVNDKTFGYKLNDGKNSKFLDAAKTSGTFKAVLGSDTLAALTAAKNALSVAVSDVADNTSTVTLLVNGNNDATTKVSVWNATNGLELDQSSPDYQAATSTYNLRGNATSDFYYNGALVQVDNSGNFVVPVSTSDTAVVFTSDAAGKNVVYKLNTATPKAVFAWQVNNTVKENFGIVLDTVVSNNKDDVVVQAAVTKGDNVEAYARDYFTGAVYKADVKDGLATFHVKVTNNSGRTVLLGWTEVVGPTFNDVQRTSANGVYLGVDTDTENPTPAPAFTSADQLGTNVVQEKADSATIGNPGDLPGHSLKDLTTRADANPDIHFDYLKDNDYNWVGAQAVKDGVYNPSTQVFTLTGKVDPNVKSLVVLGDSYNEDDPVNKVNLNSDGTFSFQFHTAPTSQRPVAYIYTKDDGSTTRGTMELILDTVLPTLSLNNVANLQLDSNGDYQVYTNNKDFSVSGEATDNLDGYRFFFNGDNDYREFHNSGVNFVAEAHQDGSTVTNPYPAYKFSKTFNLADATGETTHVYTLSVVDLTGNTVTRKFYVHY", "values": [{"measurement": "protein cleavage assay (SDS-PAGE)", "value": "has activities against"}]}]}
